In PMC6854463:

Target: MPER-TM2 (gp41 residues 630-711, containing the complete TM region) (HIV-1)
Assay: not stated; MPER-TM2 solubilized in a buffer containing β-D-octyl glucoside (β-OG); oligomeric state (Figure S5B)

MPER-TM2 (gp41 residues 630-711, containing the complete TM region) (domain or fragment)
stoichiometry N: 3
